In US8481255B2, “Scytovirin domain 1 related polypeptides” (The United States of America, as represented by the …, priority 2005, dated 2013):

B1: scytovirin: antiviral scytovirin polypeptide, SEQ ID NO: 4 (protein, listed as Scytonema varium)
chain: GSGPTYCWNEANNPGGPNRCSNNKQCDGARTCSSSGFCQGTSRKPDPGPKGPTYCWDEAKNPGGPNRCSNSKQCDGARTCSSSGFCQGTAGHAAA

Key:
HIV-1 gp120 = HIV-1 gp120 (Human immunodeficiency virus type 1 group M subtype B, UniProt P03375); settings: 100 ng/well gp120, absorbance at 450 nm
Protocol: (§1) Briefly, the 100 ng/well of either gp120 and gp41 proteins was bound to a 96-well plate, which was then rinsed with PBS containing 0.05% Tween 20 (TPBS) and blocked with BSA. Between each subsequent step, the plate was again rinsed with TPBS (x3). […] Upon addition of the horseradish peroxidase substrate buffer and color formation, the reaction was stopped by the addition of 2M H2SO4 (after 5 minutes for the gp120 plate and 15 minutes for the gp41 plate) and absorbance was measured at 450 nm for each well.

HIV-1 gp41 ectodomain = HIV-1 gp41 ectodomain (Human immunodeficiency virus type 1 group M subtype B, UniProt P03375); settings: 100 ng/well gp41, absorbance at 450 nm
Protocol: as §1

HIV-1RF = assay: XTT-tetrazolium based anti-HIV assay, acute HIV-1 infection in CEM-SS cells; format: cell-based; settings: T-tropic laboratory strain HIV-1RF in CEM-SS cells; read-out: EC50 against HIV-1RF
Description: (§2) The protocol followed was the same as described in Gulakowski et al., J. Virol. Methods, 33: 87-100 (1991).
The deletion mutants were subjected to the XTT-tetrazolium based assay as described in Example 2.

CEM-SS cells = tested on: CEM-SS cells
Description: as §2

HIV gp120 = settings: 100 μM sugar or 100 μg/well α-acid glycoprotein; 100 ng/well peptide
Protocol: (§3) Scytovirnin specifically binds to a α-1-2, α1-2, α1-6-linked tetramannoside, a substructure of oligomannose-8 and -9 found on HIV envelope glycoproteins gp120 and gp41 (Adams et al., Chem. Biol., 11(6): 875-881 (2004)). […] Briefly, a 96-well plate was prepared as described in Example 1 with glycosylated gp120 or gp41 and 100 ng/well of scytovirin or a scytovirin-derived peptide. […] Each well also contained (a) various concentrations of oligomannose-8, (b) 100 μM of glucose, mannose, galactose, xylose, or N-acytylglucosamine, or (c) 100 μg/well α-acid glycoprotein (to act as a carrier for sialic acid). The plate was then washed and visualized using anti-scytovirin polyclonal antibodies as described in Example 1.

gp41 = settings: various concentrations of oligomannose-8
Protocol: as §3

| Molecule | binding affinity to gp120 (ELISA) (HIV-1 gp120) | binding affinity to gp41 (ELISA) (HIV-1 gp41 ectodomain) | EC50 (HIV-1RF) | toxicity to the CEM-SS cell line, not detected at concentrations up to (CEM-SS cells) | inhibition of binding to gp120 by glucose, mannose, galactose, xylose, N-acytylglucosamine, α-acid glycoprotein with sialic acid (HIV gp120) | inhibition of binding to gp41 by oligomannose-8 (gp41) |
| --- | --- | --- | --- | --- | --- | --- |
| SD1: polypeptide of SEQ ID NO: 1, derived from amino acids 1-48 of scytovirin (scytovirin domain 1) (GSGPTYSWNEANNPGGPNRCSNNKQCDGARTCSSSGFCQGTSRKPDPG) | approximately the same affinity | approximately the same affinity | 6.6 nM | > 10,000 nM | not able to inhibit binding | able to inhibit the binding of SD1 to gp41 in a concentration-dependent manner |
| B1 | approximately the same affinity | approximately the same affinity | 7.5 nM | > 10,000 nM | – | – |
